The Kd is the constant that tells how readily two partners part at equilibrium. For orientation: koff means the rate constant with which the complex falls apart. One may read the kon as the rate constant with which the complex forms.

Substitutions are numbered along the chain they refer to. Numbers in names are those of the source.

Consider 4 molecules from patent publication US20130101602A1 (ARGOS THERAPEUTICS, published 2013).

Experiment [1] addresses T1, recombinant human IFN-αJ1 (human, UniProt P01567 24-189). The experiment is described as follows: cell-based or functional assay.
Experiment [2] has as its target T2, recombinant human IFN-αF (human, UniProt P01568 24-189). In words: cell-based or functional assay.
Experiment [3] has as its target T3, recombinant human IFN-αG (human, UniProt P01569 24-189). The experiment is described as follows: cell-based or functional assay.
For experiment [4], the target named is T4, recombinant human IFN-α4a (human, UniProt P05014 24-189). The experiment is described as follows: cell-based or functional assay.
Experiment [5] deals with T5, recombinant human IFN-αC (human, UniProt P01566 24-189). In words: cell-based or functional assay.
The target of experiment [6] is various IFN-α subtypes (those inhibited in the reporter gene assay of FIG. 5). The experiment is described as follows: cell-based or functional assay.
For experiment [7], the target named is T2, recombinant human IFN-αF. In words: cell-based or functional assay. The source holds these as a separate data set.
Experiment [8] addresses T3, recombinant human IFN-αG. In words: cell-based or functional assay. This is another data set of the same source.
Experiment [9] concerns the target T5, recombinant human IFN-αC. In words: cell-based or functional assay. The source holds these as a separate data set.
Experiment [10] deals with T1, recombinant human IFN-αJ1. The experiment is described as follows: SPR (Biacore), mAb amine-coupled on CM5 chip, IFN-α injected, 1:1 Langmuir fit. On the technique in general: SPR reads the build-up and loss of mass on a sensor chip optically.
Experimental: (§1) The purified monoclonal antibodies were immobilized in individual flow cells on a CM5 type sensor chip. Immobilizations were performed using a standard amine coupling procedure, aiming for an immobilization level of 1000 Resonance Units (RU).
(§2) HBS-EP pH 7.4 (10 mM HEPES, 150 mM NaCl, 3 mM EDTA and 0.005% Polysorbate P20) was used as running buffer, and diluent for the recombinant IFN-α's. Association (injection) was 4 min., followed by a 12 to 30 min. dissociation period. Flow rate was 50 μl/min. Experiments were performed at 25° C. Detection in all flow cells simultaneously. Flow cell #1 contained no immobilized antibody, and was used for subtraction of background and bulk.
(§3) Data was inspected for mass-transport limitations prior to calculation of the kinetic parameters.
The target of experiment [11] is T6, recombinant human IFN-αH2 (human, UniProt P01570 24-189).
T6 construct: also called hIFN-αH2
Described as above.
Experimental: as §1, §2, §3

Experiment [12] has as its target T7, recombinant human IFN-αK (human, UniProt P05013 24-189).
T7 construct: also called hIFN-αK
Described as above.
Experimental: as §1, §2, §3

Experiment [13] deals with T8, recombinant human IFN-αI (human, UniProt P01571 24-189).
T8 construct: also called hIFN-αI
The description is as above.
Experimental: as §1, §2, §3

Experiment [14] addresses T4, recombinant human IFN-α4a. The experiment is described as above.
Experimental: as §1, §2, §3
Experiment [15] concerns the target T3, recombinant human IFN-αG. The experiment is described as above.
Experimental: as §1, §2, §3
Experiment [16] deals with T9, recombinant human IFN-αWA (human, UniProt P05015 24-189).
T9 construct: also called hIFN-αWA
The description is as above.
Experimental: as §1, §2, §3

For experiment [17], the target named is T5, recombinant human IFN-αC. Described as above.
Experimental: as §1, §2, §3
For experiment [18], the target named is T2, recombinant human IFN-αF. The experiment is described as follows: cell-based or functional assay. This is another data set of the same source.
Experiment [19] addresses T10, recombinant human IFN-α1 (human, UniProt P0DY56 24-189).
T10 construct: both come from gene 1; also called hIFN-α1; subtype 1 (Ala114)
The experiment is described as follows: SPR (Biacore), mAb immobilised, IFN-α injected.
Experimental: as §1, §2, §3

The target in experiment [20] is recombinant human IFN-αA (human) (UniProt P01563). The experiment is described as follows: SPR (Biacore), mAb amine-coupled on CM5 chip, IFN-α injected, 1:1 Langmuir fit.
Experiment [21] has the same target. In words: SPR (Biacore), KD normalised to hzACO-1.
For experiment [22] the target is unchanged. In words: cell-based or functional assay.

recombinant human IFN-αA (human), sequence (P01563 other isoform, or with tags, fused parts or gaps): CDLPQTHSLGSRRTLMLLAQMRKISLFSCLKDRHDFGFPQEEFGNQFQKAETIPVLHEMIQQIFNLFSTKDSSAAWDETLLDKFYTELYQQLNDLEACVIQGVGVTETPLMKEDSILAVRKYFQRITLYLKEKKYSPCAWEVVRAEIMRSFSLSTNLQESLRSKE
T1 sequence (P01567 24-189 limits assumed): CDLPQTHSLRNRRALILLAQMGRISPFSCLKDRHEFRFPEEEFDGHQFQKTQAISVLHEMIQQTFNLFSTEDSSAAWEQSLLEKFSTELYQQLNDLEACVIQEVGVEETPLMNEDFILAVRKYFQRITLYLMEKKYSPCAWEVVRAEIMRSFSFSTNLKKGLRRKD
T3 sequence (P01569 24-189): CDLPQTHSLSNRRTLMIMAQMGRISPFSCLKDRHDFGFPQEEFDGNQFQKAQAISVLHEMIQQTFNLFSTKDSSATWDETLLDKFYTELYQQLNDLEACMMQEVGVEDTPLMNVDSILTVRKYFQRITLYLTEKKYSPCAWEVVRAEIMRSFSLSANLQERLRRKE
T5 sequence (P01566 24-189): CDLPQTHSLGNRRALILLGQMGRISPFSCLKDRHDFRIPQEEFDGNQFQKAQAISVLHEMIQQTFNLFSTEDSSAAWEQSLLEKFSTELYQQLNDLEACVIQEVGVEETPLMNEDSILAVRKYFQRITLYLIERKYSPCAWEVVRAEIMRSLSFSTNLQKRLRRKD
T2 sequence (P01568 24-189): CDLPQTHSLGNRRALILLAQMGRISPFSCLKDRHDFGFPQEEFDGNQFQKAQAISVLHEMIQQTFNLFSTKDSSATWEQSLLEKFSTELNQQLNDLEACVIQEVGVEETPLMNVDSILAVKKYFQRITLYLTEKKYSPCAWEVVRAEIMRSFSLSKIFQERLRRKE
T4 sequence (P05014 24-189): as the sequence (P01566 24-189) above, with G19A, P26H, R37G, I38F, Q40E, N46H, I132T, R134K counted along it
T6 sequence (P01570 24-189): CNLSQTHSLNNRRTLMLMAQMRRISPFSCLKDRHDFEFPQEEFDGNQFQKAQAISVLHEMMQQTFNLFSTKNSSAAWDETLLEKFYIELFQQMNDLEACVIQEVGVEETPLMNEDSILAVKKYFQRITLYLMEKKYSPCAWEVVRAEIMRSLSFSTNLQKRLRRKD
T8 sequence (P01571 24-189): as the sequence (P01566 24-189) above, with G19A, R37G, I38L, A51T, D95N, V106M, I132T, R134K, R161I counted along it
T10 sequence (P0DY56 entry or part of it limits assumed): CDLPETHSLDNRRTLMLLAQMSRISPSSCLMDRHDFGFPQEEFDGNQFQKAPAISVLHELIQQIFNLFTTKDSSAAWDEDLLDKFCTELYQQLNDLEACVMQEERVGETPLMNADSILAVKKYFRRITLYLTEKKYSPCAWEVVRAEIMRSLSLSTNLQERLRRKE
T7 sequence (P05013 24-189): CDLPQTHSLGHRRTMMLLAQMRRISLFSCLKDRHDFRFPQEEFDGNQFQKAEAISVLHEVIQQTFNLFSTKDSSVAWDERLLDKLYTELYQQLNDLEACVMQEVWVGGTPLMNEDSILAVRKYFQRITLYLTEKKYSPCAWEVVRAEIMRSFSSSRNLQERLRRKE
T9 sequence (P05015 24-189): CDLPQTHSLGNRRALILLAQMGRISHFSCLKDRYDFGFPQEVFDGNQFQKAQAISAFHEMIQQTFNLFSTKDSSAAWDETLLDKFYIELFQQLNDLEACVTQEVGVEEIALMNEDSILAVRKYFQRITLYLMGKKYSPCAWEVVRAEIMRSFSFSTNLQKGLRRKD

B1: ACO-1 (murine anti-IFN-α antibody, recombinant) (antibody, V domains shown)
VH: QVQLQQPGAELVKPGASVKLSCKASGYTFTNYWMHWVKQRPGQGLEWIGEINPSHGRTIYNENFKSKATLTVDKSSITAFMQLSSLTSEDSAVYFCARGGLGPAWFAYWGQGTLVTVSA
VL: QIVLTQSPAIMSASPGEKVTLTCSAGSSVDSSYLYWYQQKPGSSPKLWIYSTSNLASGVPARFSGSGSGTSYSLTISSMEAEDAASYFCHQWSSYPFTFGSGTKLEIKR
On to B1, for which the “IC50 value relative to hzACO-1 (RG assay)” value amounted to 0.58 in experiment [1], 0.82 in [2] and 0.56 in experiment [3].

B2: hzACO-1 (humanized ACO-1) (antibody, human IgG4, V domains shown)
VH: QVQLVQSGAEVKKPGASVKVSCKASGYTFTNYWMHWVRQAPGQGLEWMGEINPSHGRTIYAQKFQGRVTMTRDTSTSTVYMELSSLRSEDTAVYYCARGGLGPAWFAYWGQGTLVTVSS
VL: EIVLTQSPATLSLSPGERATLSCSAGSSVDSSYLYWYQQKPGQAPRLLIYSTSNLASGIPARFSGSGSGTDFTLTISSLEPEDFAVYYCHQWSSYPFTFGQGTKLEIKR
notes: also called hzACO-1 IgG4; hzACO-1-IgG4
Regarding B2, the figures for the “IC50 (read off the curve) (CPE assay)” value in experiment [4] and in experiment [5] were around 0.06 µg/mL and around 0.008 µg/mL, respectively. The same molecule came in with an IC50, reporter gene (Mx promoter-luciferase) assay in 93D7 cells in experiment [6] of 0.028 to 0.314 µg/mL. Further, the “IC50 (read off the curve) (reporter gene assay)” value in experiment [7] is around 0.3 µg/mL; in [8], around 0.05 µg/mL; in experiment [9] it was around 0.03 µg/mL. Also, the Kd in [10] was 4.81 nM; in experiment [11], 3.21 nM; in experiment [12], 1.44 nM; in experiment [13], 2.81 nM; in [14], 3.45 nM; in experiment [15], 0.92 nM. The results for the Kd in experiment [16] and in experiment [17] were 4.1 nM and 1.05 nM, respectively. Besides, the “IC50 (reporter gene assay, Mx promoter-luciferase in 93D7 cells)” value in [18] is 0.277 µg/mL. Moreover, the binding result in [19] was “no binding”.

B3: hzACO-1-A93V (antibody, human IgG4, name in Kabat numbering, V domains shown)
VH: B2 VH with A97V
VL: B2 VL
As for B3, the “IC50 (reporter gene assay, Mx promoter-luciferase in 93D7 cells)” value in experiment [18] turned out to be 0.156 µg/mL.

B4: hzACO-1-kabat CDRH2 (antibody, V domains shown)
VH: B2 VH with A61N, Q62E, K63N, Q65K, G66S
VL: EIVLTQSPATLSLSPGERATLSCSAGSSVDSSYLYWYQQKPGQAPRLLIYSTSNLASGIPARFSGSGSGTDFTLTISSLEPEDFAVYYCHQWSSYPFTFGQGTKLEIK
Regarding B4, the off-rate (koff) in experiment [20] turned out to be 0.000341 s⁻¹. The kon in experiment [20] was found to be 205000 M⁻¹ s⁻¹. In addition, the KD mAb/KD hzACO-1 in [21] worked out at 0.9. The “IC50 value relative to hzACO-1 (RG assay)” value in experiment [1] stood at 1.15; in experiment [2], 0.95; in [3], 0.78; in experiment [22], 0.95.
